The supplement of paper PMC7125110
± gives the standard error. Variants at the floor of the assay were thinned out.

B1: glmS ribozyme (parent)
chain: AUAAAAGCGCCAGAACUACAGAAAUGUAGUUGACGAGGAGGAGGUUUAUCGAAUUUUCGGCGGAUGCCUCCAAA

What was measured:
Settings in all cases: with glucosamine-6-phosphate
[1] = variants of: B1; assay: self-cleavage kobs at 160 uM GlcN6P; higher = faster cleavage; RNA array
Method in brief: (§1)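 On sequenced MiSeq chips, barcoded ribozyme variants were made in situ by E. coli RNA polymerase and followed at 37 °C through a hybridised Cy3 probe. Glucosamine-6-phosphate was flowed in at 40 μM to 10 mM in HEPES/KCl/Mg(OAc)2 buffer. Exponential fits to normalised per-tile medians gave kobs, and weighted Michaelis–Menten fits gave kcat and KM.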

[2] = variants of: B1; assay: self-cleavage kobs at 640 uM GlcN6P; higher = faster cleavage; RNA array
Method in brief: as §1

[3] = variants of: B1; assay: self-cleavage kobs at 2500 uM GlcN6P; higher = faster cleavage; RNA array
Method in brief: as §1

[4] = variants of: B1; assay: self-cleavage kobs at 10000 uM GlcN6P; higher = faster cleavage; RNA array
Method in brief: as §1

Row | Variant | self-cleavage kobs at 160 uM GlcN6P [1] [s⁻¹] | self-cleavage kobs at 640 uM GlcN6P [2] [s⁻¹] | self-cleavage kobs at 2500 uM GlcN6P [3] [s⁻¹] | self-cleavage kobs at 10000 uM GlcN6P [4] [s⁻¹]
1 | A15G G40U C70A | 4.48e-05 ± 1.3e-05 | 0.000328 ± 8e-05 | 0.000773 ± 0.00016 | 0.000531 ± 0.00014
2 | A15C U57C G62C | < 1e-05 | < 1e-05 |  | 
3 | A14C A36C A52U | < 1e-05 | < 1e-05 |  | < 1e-05
4 | C16G A33C C58G G66A | < 1e-05 |  | < 1e-05 | 
5 | U31C U45A C67A | 0.000102 ± 3e-05 | 0.000203 ± 4.8e-05 | 0.000723 ± 0.00023 | 
6 | A14U A36C A64U | < 1e-05 | < 1e-05 |  | < 1e-05
7 | G13A A33C | < 1e-05 | < 1e-05 |  | < 1e-05
8 | G29U C34U U46G U47G G63A | < 1e-05 | < 1e-05 | < 1e-05 | 
9 | A14C U30G G41C A53G | < 1e-05 |  | < 1e-05 | 
10 | G29U G37C A42C U46A | < 1e-05 | < 1e-05 |  | 
11 | G13U G41C A42U U65C | < 1e-05 | < 1e-05 | < 1e-05 | 
12 | G13U G41U C61G C71G | < 1e-05 | < 1e-05 | < 1e-05 | 
13 | U31G A39C U45A | 0.000229 ± 6.4e-05 | 0.000642 ± 0.0001 | 0.00161 ± 0.00025 | 
14 | A12U U56G U57G C58A A64G | 5.96e-05 ± 2.1e-05 | 0.000137 ± 2.4e-05 | 5.56e-05 ± 2.7e-05 | 
15 | G32U C34G G43A | < 1e-05 | < 1e-05 | < 1e-05 | 
16 | G29A G63C C70G | 7.77e-05 ± 3e-05 | 0.000155 ± 4.1e-05 | 7.4e-05 ± 2.1e-05 | 
17 | U30C U56C A64U | < 1e-05 | < 1e-05 |  | 
18 | A14G G35U G60A C68G | < 1e-05 |  |  | 
19 | C16U U31A G43U A52U | < 1e-05 | < 1e-05 | < 1e-05 | 
20 | A12U A14C U47A | 0.000117 ± 2.3e-05 | 0.000593 ± 0.00011 | 0.00107 ± 0.00025 | 
21 | U30A G44C | < 1e-05 |  |  | 
22 | G13U G21U G37C | < 1e-05 |  |  | 
23 | G13U C34A G40U C58A | < 1e-05 | < 1e-05 |  | 
24 | C16A A52G G63U G66U | < 1e-05 | < 1e-05 |  | 
